Values belong to the binder of their own block, whether it stands above or below them.
Legend:
Test in all cases: ITC
[1] = molecular target: LC3B (purified, for ITC)
[2] = molecular target: GABARAP (purified, for ITC) (human)
[3] = molecular target: LC3C (purified, for ITC)
[4] = molecular target: GABARAPL1 (purified, for ITC)
[5] = molecular target: GABARAPL2 (purified, for ITC) (human)
[6] = molecular target: T1, LIR[Sp] peptide; conditions: chain shown with the change
T1 chain: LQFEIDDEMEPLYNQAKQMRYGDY

Chain of GABARAPL2 (purified, for ITC) (human) (P60520 1-116): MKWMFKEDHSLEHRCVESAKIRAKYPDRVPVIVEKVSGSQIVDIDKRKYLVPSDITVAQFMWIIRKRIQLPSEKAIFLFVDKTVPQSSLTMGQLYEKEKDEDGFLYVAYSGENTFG

Kd [1]: > 132 µM
Kd [2]: > 132 µM
Kd [3]: 26.9 µM
Kd [4]: > 132 µM
Kd [5]: > 132 µM
Binder: DGTLIIDLPDSY [LIR(TP[T]) peptide]

Kd [6]: 629 nM
B1: GABARAP (purified, for ITC) F62W (protein)
chain: MKFVYKEEHPFEKRRSEGEKIRKKYPDRVPVIVEKAPKARIGDLDKKKYLVPSDLTVGQFYWLIRKRIHLRAEDALFFFVNNVIPPTSATMGQLYQEHHEEDFFLYIAYSDESVYG

Source: article PMC10240976
